From publication PMC6125206 (Structure (London, England : 1993), 2018)

Target: the molecule itself
Test: AUC

B1: E. coli cyclopropane fatty acid (CFA) synthase, wild type (from His6-TEV-CFA synthase) (enzyme, UniProt P0A9H7 1-382, looked up)
chain: MSSSCIEEVSVPDDNWYRIANELLSRAGIAINGSAPADIRVKNPDFFKRVLQEGSLGLGESYMDGWWECDRLDMFFSKVLRAGLENQLPHHFKDTLRIAGARLFNLQSKKRAWIVGKEHYDLGNDLFSRMLDPFMQYSCAYWKDADNLESAQQAKLKMICEKLQLKPGMRVLDIGCGWGGLAHYMASNYDVSVVGVTISAEQQKMAQERCEGLDVTILLQDYRDLNDQFDRIVSVGMFEHVGPKNYDTYFAVVDRNLKPEGIFLLHTIGSKKTDLNVDPWINKYIFPNGCLPSVRQIAQSSEPHFVMEDWHNFGADYDTTLMAWYERFLAAWPEIADNYSERFKRMFTYYLNACAGAFRARDIQLWQVVFSRGVENGLRVAR
- stoichiometry N: 2
